Reference: publication PMC3019181 (BMC Microbiology, 2010)

Target: the molecule itself
Assay: two-hybrid; yeast; pJZ4-G clones in strain RFY231 mated with pHZ5-NRT clones in strain Y309; beta-galactosidase activity in Miller units (Yeast beta-Galactosidase Assay Kit, Pierce)

B1: Wag31T73EMtb (phosphomimetic Wag31 of Mycobacterium tuberculosis) (natural protein)
chain: MPLTPADVHNVAFSKPPIGKRGYNEDEVDAFLDLVENELTRLIEENSDLRQRINELDQELAAGGGAGVTPQAEQAIPAYEPEPGKPAPAAVSAGMNEEQALKAARVLSLAQDTADRLTNTAKAESDKMLADARANAEQILGEARHTADATVAEARQRADAMLADAQSRSEAQLRQAQEKADALQADAERKHSEIMGTINQQRAVLEGRLEQLRTFEREYRTRLKTYLESQLEELGQRGSAAPVDSNADAGGFDQFNRGKN
notes: also called phosphomimetic Wag31T73EMtb; source: yeast two-hybrid fusion
fold interaction (beta-galactosidase activity) against wild-type Wag31Mtb with itself: ~2 fold
